As usually defined, the EC50 is the concentration that produces a half-maximal response. Lower therefore signals an effect from little substance. By Kd is commonly meant the equilibrium constant for the complex coming apart. Low readings indicate a tighter complex, high ones a looser complex. A word on the IC50: it is the concentration at which inhibition is half-maximal.

In assay [1] the target is T1, FGFR2IIIb on cells (human, UniProt P21802). Nature of the assay: FACS, CHO-FGFR2IIIb. In general terms: A flow cytometer gives signals particle by particle.
Target sequence in this assay (P21802 22-377): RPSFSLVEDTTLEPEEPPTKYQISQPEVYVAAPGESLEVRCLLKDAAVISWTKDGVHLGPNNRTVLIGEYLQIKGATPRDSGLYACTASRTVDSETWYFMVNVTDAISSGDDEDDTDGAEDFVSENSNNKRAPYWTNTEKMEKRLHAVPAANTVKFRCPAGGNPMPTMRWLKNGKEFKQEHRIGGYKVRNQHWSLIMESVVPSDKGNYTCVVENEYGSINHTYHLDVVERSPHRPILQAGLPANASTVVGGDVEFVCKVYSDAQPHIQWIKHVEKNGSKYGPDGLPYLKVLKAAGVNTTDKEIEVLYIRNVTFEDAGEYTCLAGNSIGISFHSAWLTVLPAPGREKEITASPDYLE
The target in assay [2] is T2, FGFR2IIIb-his (ECD) (human).
T2 chain: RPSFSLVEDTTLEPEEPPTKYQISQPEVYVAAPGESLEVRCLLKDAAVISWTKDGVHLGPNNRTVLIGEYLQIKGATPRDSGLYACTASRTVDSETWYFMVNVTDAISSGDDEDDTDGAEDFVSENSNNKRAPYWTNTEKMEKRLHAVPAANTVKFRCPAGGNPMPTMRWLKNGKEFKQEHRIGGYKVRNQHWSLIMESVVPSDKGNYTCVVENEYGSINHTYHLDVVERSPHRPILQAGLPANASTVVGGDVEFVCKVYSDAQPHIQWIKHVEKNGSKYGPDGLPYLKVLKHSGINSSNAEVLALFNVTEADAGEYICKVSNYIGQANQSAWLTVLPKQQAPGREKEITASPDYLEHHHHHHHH
Kind of assay: SPR. In general terms: Surface plasmon resonance follows binding to a sensor surface in real time, without labels.

Assay [3] has as its target T3, FGFR2IIIb-Fc (human, UniProt P21802). Kind of assay: competition ELISA, FGF10. In general terms: ELISA stands for enzyme-linked immunosorbent assay.
Target sequence in this assay (P21802 22-377): as the sequence (P21802 22-377) above
The target of assay [4] is T3, FGFR2IIIb-Fc. Nature of the assay: competition ELISA, FGF1.
Target sequence in this assay (P21802 22-377): as the sequence (P21802 22-377) above
The target in assay [5] is T1, FGFR2IIIb on cells. Nature of the assay: FACS, SNU-16.
Target sequence in this assay (P21802 22-377): as the sequence (P21802 22-377) above
Assay [6] addresses T2, FGFR2IIIb-his (ECD). Kind of assay: ELISA.
Assay [7] deals with T3, FGFR2IIIb-Fc. Nature of the assay: competition ELISA, FGF7.
In assay [8] the target is T3, FGFR2IIIb-Fc. Nature of the assay: competition ELISA, FGF10. The source holds these as a separate data set.
Assay [9] concerns the target T3, FGFR2IIIb-Fc. Nature of the assay: competition ELISA, FGF1. This is another data set of the same source.
The next assay concerns the target T4, mouse FGFR2IIIb (mouse, UniProt P21803).
T4 chain: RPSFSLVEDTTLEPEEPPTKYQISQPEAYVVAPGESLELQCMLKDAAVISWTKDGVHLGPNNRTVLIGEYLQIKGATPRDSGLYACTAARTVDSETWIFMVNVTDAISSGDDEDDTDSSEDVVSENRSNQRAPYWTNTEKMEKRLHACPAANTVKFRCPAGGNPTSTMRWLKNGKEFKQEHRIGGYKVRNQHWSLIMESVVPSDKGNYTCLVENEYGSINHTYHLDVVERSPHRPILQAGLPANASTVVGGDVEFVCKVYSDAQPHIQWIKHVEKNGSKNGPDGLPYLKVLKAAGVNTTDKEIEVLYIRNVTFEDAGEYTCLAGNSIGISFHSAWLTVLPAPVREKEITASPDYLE
Nature of the assay: ELISA.

In assay [10] the target is T1, FGFR2IIIb on cells. Nature of the assay: FACS, CHO-FGFR2IIIb. This is another data set of the same source.
Assay [11] deals with T3, FGFR2IIIb-Fc. Nature of the assay: competition ELISA, FGF10. This is another data set of the same source.
Assay [12] addresses T3, FGFR2IIIb-Fc. Kind of assay: competition ELISA, FGF1. The source holds these as a separate data set.
The target of assay [13] is T3, FGFR2IIIb-Fc. Nature of the assay: competition ELISA, FGF7. This is another data set of the same source.
The target in assay [14] is T2, FGFR2IIIb-his (ECD). Kind of assay: ELISA.
Assay [15] concerns the target T1, FGFR2IIIb on cells. Nature of the assay: FACS, SNU-16. This is another data set of the same source.
The next assay deals with FGFR2IIIc-his (ECD) (human). Nature of the assay: ELISA.
The target of assay [16] is T3, FGFR2IIIb-Fc. Nature of the assay: competition ELISA, FGF10. The source holds these as a separate data set.
The target of assay [17] is T2, FGFR2IIIb-his (ECD). Kind of assay: ELISA.
In assay [18] the target is T3, FGFR2IIIb-Fc. Kind of assay: competition ELISA, FGF7. The source holds these as a separate data set.

Numbering of substitutions follows the chain as printed. Where two headings read alike, the source gives them in different places.

B1: III-11 (antibody, V domains shown)
VH: QVQLVQSGAEVKKPGSSVKVSCKASGYTFAIYNMHWVRQAPGQGLEWIGAIYPDNGDTFYNQKFKGKATLTADKSTSTAYMELSSLRSEDTAVYYCARGDFGYWGQGTLVTVSS
VL: DIVMTQSPSSLSASVGDRVTITCKASQDVNIDPAWYQQKPGKAPKLLIYLASYRYTGVPSRFSGSGSGTDFTFTISSLQPEDFATYYCQQHYSTPYTFGQGTKLEIK
With B1, the EC50 in the assay with FGFR2IIIb on cells [1] amounted to 0.19 µg/mL; with FGFR2IIIb on cells [5] it was 0.319 µg/mL; in the assay with FGFR2IIIb-his (ECD) [6], 0.051 µg/mL. This molecule registered a dissociation constant Kd with FGFR2IIIb-his (ECD) [2] of 1.24 nM. For the same molecule, the results for the IC50 with FGFR2IIIb-Fc [3] and in the assay with FGFR2IIIb-Fc [4] were 0.976 µg/mL and 1.18 µg/mL, respectively.

B2: III-10 (antibody, V domains shown)
VH: B1 VH with I31N, D54G, F59S
VL: B1 VL with P33V, L50S
Consider B2, for which the EC50 was determined as 0.257 µg/mL with FGFR2IIIb on cells [1], 0.471 µg/mL with FGFR2IIIb on cells [5], 0.052 µg/mL with FGFR2IIIb-his (ECD) [6] and 0.127 µg/mL with mouse FGFR2IIIb. The molecule also yielded a Kd with FGFR2IIIb-his (ECD) [2] of 68.1 nM. Further, the half-inhibitory concentration (IC50) with FGFR2IIIb-Fc [7] turned out to be 0.565 µg/mL; with FGFR2IIIb-Fc [8] it was 0.724 µg/mL; with FGFR2IIIb-Fc [9] it was 0.581 µg/mL.

B3: III-12 (antibody, V domains shown)
VH: B1 VH with I31N, F59S
VL: B1 VL with P33V, H91T
As for B3, the affinity with FGFR2IIIb-his (ECD) [2], expressed as Kd, was 1.32 nM. Besides, the IC50 with FGFR2IIIb-Fc [3] came to 0.999 µg/mL; with FGFR2IIIb-Fc [4] it was 1.08 µg/mL.

B4: III-15 (antibody, V domains shown)
VH: B1 VH
VL: B1 VL with P33V, H91T
B4: the EC50 is 0.26 µg/mL with FGFR2IIIb on cells [1], 0.378 µg/mL with FGFR2IIIb on cells [5] and 0.042 µg/mL with FGFR2IIIb-his (ECD) [6]. This molecule also displayed a Kd with FGFR2IIIb-his (ECD) [2] of 1.04 nM. Besides, the values for the IC50 in the assay with FGFR2IIIb-Fc [3] and with FGFR2IIIb-Fc [4] were 0.805 µg/mL and 0.941 µg/mL, respectively.

B5: III-13 (antibody, V domains shown)
VH: B1 VH with F59S
VL: B1 VL with P33V, H91T
The molecule B5 showed a Kd in the assay with FGFR2IIIb-his (ECD) [2] of 1.23 nM. In addition, the IC50 in the assay with FGFR2IIIb-Fc [3] is 0.905 µg/mL; with FGFR2IIIb-Fc [4] it was 0.966 µg/mL.

B6: III-14 (antibody, V domains shown)
VH: B1 VH with D54G
VL: B1 VL with P33V, H91T
In the case of B6, the EC50 stood at 0.263 µg/mL in the assay with FGFR2IIIb on cells [1], 0.526 µg/mL with FGFR2IIIb on cells [5] and 0.058 µg/mL with FGFR2IIIb-his (ECD) [6]. In the assay with FGFR2IIIb-his (ECD) [2], this molecule came in with a Kd of 1.26 nM. For the same molecule, the IC50 with FGFR2IIIb-Fc [3] is 0.937 µg/mL; with FGFR2IIIb-Fc [4], 0.974 µg/mL.

B7: III-0 (antibody, V domains shown)
VH: QVQLQQPGAELVRPGASVKMSCKASGYTFANYNMHWVKQTPRQGLEWIGAIYPGNGDTSYNQKFKGKATLTADKSSSTAYMQLSSLTSEDSAVYYCARGDFGYWGQGTTLTVSS
VL: DIVMTQSHKFMSTSVGDRVTITCKASQDVNIDVAWYQQKPGQSPKLLIYSASYRYTGVPDRFTGSGSGTDFTFTISSVQAEDLAVYYCQQHYSTPYTFGGGTKLEIK
In the case of B7, the half-maximal effective concentration (EC50) was 0.342 µg/mL with FGFR2IIIb on cells [1]; 1.01 µg/mL with FGFR2IIIb on cells [10]; 0.74 µg/mL with FGFR2IIIb on cells [5]; 0.048 µg/mL with FGFR2IIIb-his (ECD) [6]; 0.0404 µg/mL with FGFR2IIIb-his (ECD) [14]; 1.64 µg/mL with FGFR2IIIb on cells [15]. The molecule also showed a Kd in the assay with FGFR2IIIb-his (ECD) [2] of 81.3 nM. Also, the IC50 in the assay with FGFR2IIIb-Fc [11] is 0.84 µg/mL; with FGFR2IIIb-Fc [7], 0.603 µg/mL; with FGFR2IIIb-Fc [8], 0.745 µg/mL; with FGFR2IIIb-Fc [12], 0.904 µg/mL; with FGFR2IIIb-Fc [13] it was 0.694 µg/mL; in the assay with FGFR2IIIb-Fc [9], 0.692 µg/mL.

B8: 27E9A11 (antibody, V domains shown)
VH: B7 VH
VL: B7 VL
B8: the binding result with FGFR2IIIc-his (ECD) is recorded as “no binding”. In addition, the IC50 with FGFR2IIIb-Fc [16] turned out to be 0.545 µg/mL; with FGFR2IIIb-Fc [18], 0.417 µg/mL. In the assay with FGFR2IIIb-his (ECD) [17], this molecule yielded an EC50 of 0.05 µg/mL.

The record behind these values is patent publication US20260317429 (published 2026).
